{
  "source": "IntAct's records for PubMed 16284401",
  "parents": {"B1": {"name": "Kinase D-interacting substrate of 220 kDa (Rattus norvegicus (Rat)), Q9EQG6 (parent)", "chain": "MSVLISQSVINYVEEENIPALKALLEKCKDVDERNECGQTPLMLAAEQGNVEIVKELLKNGANCNLEDLDNWTALISASKEGHIHIVEELLKSGASLEHRDMGGWTALMWACYKGRTDVVELLLSHGANPSVTGLYSVYPIIWAAGRGHADIVHLLLQNGAKVNCSDKYGTTPLVWAARKGHLECVKHLLAMGADVDQEGANSMTALIVAVKGGYTQSVKEILKRNPNVNLTDKDGNTALMIASKEGHIEIVQDLLDAGTYVNIPDRSGDTVLIGAVRGGHVEIVRALLQKYADIDIRGQDNKTALYWAVEKGNATMVRDILQCNPDTEICTKDGETPLIKATKMRNIEVVELLLDKGAKVSAVDKKGDTPLHVAIRGRSRRLAELLLRNPKDGRLLYRPNKAGETPYNIDCSHQKSILTQIFGARHLSPTETDGDMLGYDLYSSALADILSEPTMQPPICVGLYAQWGSGKSFLLKKLEDEMKTFAGQQTEPLFQFSWLIVFLTLLLCGGLGLVFAFTVDTNLAIAISLSFLALIYIFFIVIYFGGRREGESWNWAWALSTRLARHIGYLELLFKLMFVNPPELPEQTTKALPVRFLFTDYNRLSSVGGETSLAEMIATLSDACEREFGFLATRLFRVFRTEESQGKKKWKKTCCLPSFVIFLFIVGCIIAGITLLAIFRVDPKHLTVNAILISIASVVGLAFVLNCRTWWQVLDSLLNSQRKRLHSAASKLHKLKSEGFMKVLKCEVELMARMAKTIDSFTQNQTRLVVIIDGLDACEQDKVLQMLDTVRVLFSKGPFIAIFASDPHIIIKAINQNLNSVLRDSNINGHDYMRNIVHLPVFLNSRGLSNARKFLVTSATNGDITCSDTTGTQEDTDRRVSQNSLGEMTKLGSKTALNRRDTYRRRQMQRTITRQMSFDLTKLLVTEDWFSDISPQTMRRLLNIVSVTGRLLRANQITFNWDRLASWINLTEQWPYRTSWLILYLEETEGLPDQMTLKTIYERISKNIPTTKDVEPLLEIDGDIRNFEVFLSSRTPVLVARDVKTFLPCTVNLDPKLREIIADVRAAREQINIGGLAYPPLPLHEGPPRPPSGYSQPASVCSSASFNGPFPGGVVSPQPHSSYYSGLSGPQHPFYNRPFFAPYLYTPRYYPGGSQHLISRSSVKTSLPRDQNNGLPCDSGFNKQRQAAVPATGSSLLLSSMTVDVVCEKLRQIEGLDQSMMPQYCTTIKKANINGRVLSQCNIDELKKEMAMNFGDWHLFRSMVLEMRSVESQVVPEDPRFLNENSSAPVPHGESARRSSHTELPLTELSSQTPYTLNFSFEELNTLGLDEGAPRHSNLSWQSQTRRTPSLSSLNSQDSSIEISKLTDKVQAEYRDAYREYIAQMSQLEGGTGSSTISGRSSPHSTYYIGQSSSGGSIHSTLEQERGKEGELKQEDGRKSFLMKRGDVIDYSSSGVSTNEASPLDPITEEDEKSDQSGSKLLPGKKSSERPSLFQTDLKLKGGGLRYQKLPSDEDESGTEESDNTPLLKDDKDKKAEGKAERVCKSPEHSAEPIRTFIKAKEYLSDALLDKKDSSDSGVRSNESSPNHSLHNEAADDSQLEKANLIELEDEGHSGKRGMPHSLSGLQDPIIARMSICSEDKKSPSECSLIASSPEESWPACQKAYNLNRTPSTVTLNNNTAPTNRANQNFDEIEGIRETSQVILRPGPSPNPTAVQNENLKSMAHKRSQRSSYTRLSKDASELHAASSESTGFGEERESIL"}, "B2": {"name": "Crk-like protein (Rattus norvegicus (Rat)), Q5U2U2 (parent)", "chain": "MSSARFDSSDRSAWYMGPVSRQEAQTRLQGQRHGMFLVRDSSTCPGDYVLSVSENSRVSHYIINSLPNRRFKIGDQEFDHLPALLEFYKIHYLDTTTLIEPAPRYPNPPMGSVSAPNLSTAEENLEYVRTLYDFPGNDAEDLPFKKGELLVIIEKPEEQWWSARNKDGRVGMIPVPYVEKLVRSSPHGKHGNRNSNSYGIPEPAHAYAQPQTTTPLPTVASTPGAAINPLPSTQNGPVFAKAIQKRVPCAYDKTALALEVGDIVKVTRMNINGQWEGEVNGRKGLFPFTHVKIFDPQNPDDNE"}},
  "data": [
    {"variants_of": "B1", "details": "with crkl_human CRKL", "values": [
      {"variant": "Y1095F", "effect of a mutation on the interaction": "decreasing interaction"}
    ]},
    {"variants_of": "B1", "details": "with crkl_rat Crkl, Q5U2U2", "values": [
      {"variant": "Y1095F", "effect of a mutation on the interaction": "decreasing interaction"}
    ]},
    {"variants_of": "B2", "details": "with kdis_rat Kidins220, Q9EQG6", "values": [
      {"variant": "R39N", "effect of a mutation on the interaction": "decreasing interaction"}
    ]}
  ]
}
